For this experiment, the target named is T1, FLAG-Sec16 (1,101–1,600 aa) (human, UniProt O15027-4 1101-1600).
T1 sequence: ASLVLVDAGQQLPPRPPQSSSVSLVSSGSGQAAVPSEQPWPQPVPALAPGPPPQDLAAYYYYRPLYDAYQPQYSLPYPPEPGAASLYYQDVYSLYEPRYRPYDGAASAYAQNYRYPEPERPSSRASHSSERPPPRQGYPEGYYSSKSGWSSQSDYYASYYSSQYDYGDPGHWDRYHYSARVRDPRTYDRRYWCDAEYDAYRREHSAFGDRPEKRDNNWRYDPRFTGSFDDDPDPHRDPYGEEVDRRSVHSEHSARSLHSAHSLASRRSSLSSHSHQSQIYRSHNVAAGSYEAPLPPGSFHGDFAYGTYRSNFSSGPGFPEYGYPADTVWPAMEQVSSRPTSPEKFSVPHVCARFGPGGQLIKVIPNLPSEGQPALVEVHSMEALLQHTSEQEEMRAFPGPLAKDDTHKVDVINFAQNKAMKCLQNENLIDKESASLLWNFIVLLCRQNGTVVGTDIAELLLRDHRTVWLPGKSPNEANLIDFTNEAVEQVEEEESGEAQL
Briefly: pull-down.

B1: GST-tagged TANGO1-PRD (1,651–1,907 aa) (domain or fragment)
chain: NTQNPPRRGPLSQNGSFGPSPVSGGECSPPLTVEPPVRPLSATLNRRDMPRSEFGSVDGPLPHPRWSAEASGKPSPSDPGSGTATMMNSSSRGSSPTRVLDEGKVNMAPKGPPPFPGVPLMSTPMGGPVPPPIRYGPPPQLCGPFGPRPLPPPFGPGMRPPLGLREFAPGVPPGRRDLPLHPRGFLPGHAPFRPLGSLGPREYFIPGTRLPPPTHGPQEYPPPPAVRDLLPSGSRDEPPPASQSTSQDCSQALKQSP
Take B1: the binding result is “binds”.

B2: GST-tagged TANGO1-PRDΔ60 (1,651–1,847 aa) (domain or fragment)
chain: NTQNPPRRGPLSQNGSFGPSPVSGGECSPPLTVEPPVRPLSATLNRRDMPRSEFGSVDGPLPHPRWSAEASGKPSPSDPGSGTATMMNSSSRGSSPTRVLDEGKVNMAPKGPPPFPGVPLMSTPMGGPVPPPIRYGPPPQLCGPFGPRPLPPPFGPGMRPPLGLREFAPGVPPGRRDLPLHPRGFLPGHAPFRPLGS
On to B2, for which the binding result is “binds”.

(Values after publication PMC5461033 (The Journal of Cell Biology, 2017).)
